Test results as given in the supplement of paper PMC5998384.

Experiments:
HeLa Kyoto [1] = experiment: thermal stability score vs G1/S (z-score of summed log2 fold changes over temperatures); higher = more thermally stable than in G1/S
HeLa Kyoto [2] = experiment: melting temperature (median over replicates), in situ; higher = more thermally stable
HeLa Kyoto [3] = experiment: solubility change mitosis vs G1/S (difference of NP-40 vs SDS log2 ratios) (log2 ratio difference); higher = more soluble in mitosis
HeLa Kyoto [4] = experiment: solubility in G1/S (NP-40 vs SDS abundance) (log2 ratio); higher = more soluble; conditions: cell cycle stage: G1/S
[5] = cell cycle stage: early G1 (4.5 h after nocodazole release)
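Throughout, for melting temperature (median over replicates), in situ: HeLa Kyoto cells synchronized by double thymidine or nocodazole block, proteins quantified by TMT10plex mass spectrometry, three independent biological replicates.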
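Throughout, for solubility change mitosis vs G1/S (difference of NP-40 vs SDS log2 ratios): synchronized HeLa Kyoto cells (double thymidine block for G1/S, nocodazole release for mitosis), protein amounts in NP-40 versus SDS lysates quantified by mass spectrometry, three biological replicates.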
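Throughout, for solubility in G1/S (NP-40 vs SDS abundance): HeLa Kyoto cells arrested at G1/S by double thymidine block, proteins quantified by TMT10plex mass spectrometry in mild NP-40 versus SDS extracts, three biological replicates.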
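Throughout, for thermal stability score vs G1/S (z-score of summed log2 fold changes over temperatures): synchronized HeLa Kyoto cells, proteins quantified by TMT10plex mass spectrometry, three biological replicates, mitosis taken 0.5 h after nocodazole release, G1/S directly after double thymidine block.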

Sequence | thermal stability score (HeLa Kyoto [1]; [5]) | thermal stability score (HeLa Kyoto [1]; cell cycle stage: mitosis) | melting temperature (HeLa Kyoto [2]; cell cycle stage: G1/S) | melting temperature (HeLa Kyoto [2]; cell cycle stage: mitosis) | solubility change mitosis (log2) (HeLa Kyoto [3]) | solubility in G1/S (log2) (HeLa Kyoto [4])
MAAPILRSFSWGRWSGTLNLSVLLPLGLRKAHSGAQGLLAAQKARGLFKDFFPETGTKIELPELFDRGTASFPQTIYCGFDPTADSLHVGHLLALLGLFHLQRAGHNVIALVGGATARLGDPSGRTKEREALETERVRANARALRLGLEALAANHQQLFTDGRSWGSFTVLDNSAWYQKQHLVDFLAAVGGHFRMGTLLSRQSVQLRLKSPEGMSLAEFFYQVLQAYDFYYLFQRYGCRVQLGGSDQLGNIMSGYEFINKLTGEDVFGITVPLITSTTGAKLGKSAGNAVWLNRDKTSPFELYQFFVRQPDDSVERYLKLFTFLPLPEIDHIMQLHVKEPERRGPQKRLAAEVTKLVHGREGLDSAKRCTQALYHSSIDALEVMSDQELKELFKEAPFSEFFLDPGTSVLDTCRKANAIPDGPRGYRMITEGGVSINHQQVTNPESVLIVGQHILKNGLSLLKIGKRNFYIIKWLQL [YARS2] | 0.871 | 4.36 | 48.8 °C | 48.2 °C | -0.0352 | 0.027
MAAPLIPLSQQIPTGNSLYESYYKQVDPAYTGRVGASEAALFLKKSGLSDIILGKIWDLADPEGKGFLDKQGFYVALRLVACAQSGHEVTLSNLNLSMPPPKFHDTSSPLMVTPPSAEAHWAVRVEEKAKFDGIFESLLPINGLLSGDKVKPVLMNSKLPLDVLGRVWDLSDIDKDGHLDRDEFAVAMHLVYRALEKEPVPSALPPSLIPPSKRKKTVFPGAVPVLPASPPPKDSLRSTPSHGSVSSLNSTGSLSPKHSLKQTQPTVNWVVPVADKMRFDEIFLKTDLDLDGYVSGQEVKEIFMHSGLTQNLLAHIWALADTRQTGKLSKDQFALAMYFIQQKVSKGIDPPQVLSPDMVPPSERGTPGPDSSGSLGSGEFTGVKELDDISQEIAQLQREKYSLEQDIREKEEAIRQKTSEVQELQNDLDRETSSLQELEAQKQDAQDRLDEMDQQKAKLRDMLSDVRQKCQDETQMISSLKTQIQSQESDLKSQEDDLNRAKSELNRLQQEETQLEQSIQAGRVQLETIIKSLKSTQDEINQARSKLSQLHESRQEAHRSLEQYDQVLDGAHGASLTDLANLSEGVSLAERGSFGAMDDPFKNKALLFSNNTQELHPDPFQTEDPFKSDPFKGADPFKGDPFQNDPFAEQQTTSTDPFGGDPFKESDPFRGSATDDFFKKQTKNDPFTSDPFTKNPSLPSKLDPFESSDPFSSSSVSSKGSDPFGTLDPFGSGSFNSAEGFADFSQMSKPPPSGPFTSSLGGAGFSDDPFKSKQDTPALPPKKPAPPRPKPPSGKSTPVSQLGSADFPEAPDPFQPLGADSGDPFQSKKGFGDPFSGKDPFVPSSAAKPSKASASGFADFTSVS [EPS15L1] | 0.244 | 1.69 | 49.6 °C | 51.2 °C | -0.0276 | 0.43
MAAQCVTKVALNVSCANLLDKDIGSKSDPLCVLFLNTSGQQWYEVERTERIKNCLNPQFSKTFIIDYYFEVVQKLKFGVYDIDNKTIELSDDDFLGECECTLGQIVSSKKLTRPLVMKTGRPAGKGSITISAEEIKDNRVVLFEMEARKLDNKDLFGKSDPYLEFHKQTSDGNWLMVHRTEVVKNNLNPVWRPFKISLNSLCYGDMDKTIKVECYDYDNDGSHDLIGTFQTTMTKLKEASRSSPVEFECINEKKRQKKKSYKNSGVISVKQCEITVECTFLDYIMGGCQLNFTVGVDFTGSNGDPRSPDSLHYISPNGVNEYLTALWSVGLVIQDYDADKMFPAFGFGAQIPPQWQVSHEFPMNFNPSNPYCNGIQGIVEAYRSCLPQIKLYGPTNFSPIINHVARFAAAATQQQTASQYFVLLIITDGVITDLDETRQAIVNASRLPMSIIIVGVGGADFSAMEFLDGDGGSLRSPLGEVAIRDIVQFVPFRQFQNAPKEALAQCVLAEIPQQVVGYFNTYKLLPPKNPATKQQKQ [CPNE3] | 1.91 | -0.0585 | 50.8 °C | 50.8 °C | -0.146 | -0.0447
MAAQKDQQKDAEAEGLSGTTLLPKLIPSGAGREWLERRRATIRPWSTFVDQQRFSRPRNLGELCQRLVRNVEYYQSNYVFVFLGLILYCVVTSPMLLVALAVFFGACYILYLRTLESKLVLFGREVSPAHQYALAGGISFPFFWLAGAGSAVFWVLGATLVVIGSHAAFHQIEAVDGEELQMEPV [RABAC1] | -0.0851 | -0.547 | 59.6 °C | 58.3 °C | -0.0714 | -0.392
MAAQQRDCGGAAQLAGPAAEADPLGRFTCPVCLEVYEKPVQVPCGHVFCSACLQECLKPKKPVCGVCRSALAPGVRAVELERQIESTETSCHGCRKNFFLSKIRSHVATCSKYQNYIMEGVKATIKDASLQPRNVPNRYTFPCPYCPEKNFDQEGLVEHCKLFHSTDTKSVVCPICASMPWGDPNYRSANFREHIQRRHRFSYDTFVDYDVDEEDMMNQVLQRSIIDQ [RNF114] | -2.47 | -2.4 | 53.2 °C | 53.8 °C | 0.0396 | 0.162
MAAQVTLEDALSNVDLLEELPLPDQQPCIEPPPSSLLYQPNFNTNFEDRNAFVTGIARYIEQATVHSSMNEMLEEGQEYAVMLYTWRSCSRAIPQVKCNEQPNRVEIYEKTVEVLEPEVTKLMNFMYFQRNAIERFCGEVRRLCHAERRKDFVSEAYLITLGKFINMFAVLDELKNMKCSVKNDHSAYKRAAQFLRKMADPQSIQESQNLSMFLANHNKITQSLQQQLEVISGYEELLADIVNLCVDYYENRMYLTPSEKHMLLKVMGFGLYLMDGSVSNIYKLDAKKRINLSKIDKYFKQLQVVPLFGDMQIELARYIKTSAHYEENKSRWTCTSSGSSPQYNICEQMIQIREDHMRFISELARYSNSEVVTGSGRQEAQKTDAEYRKLFDLALQGLQLLSQWSAHVMEVYSWKLVHPTDKYSNKDCPDSAEEYERATRYNYTSEEKFALVEVIAMIKGLQVLMGRMESVFNHAIRHTVYAALQDFSQVTLREPLRQAIKKKKNVIQSVLQAIRKTVCDWETGHEPFNDPALRGEKDPKSGFDIKVPRRAVGPSSTQLYMVRTMLESLIADKSGSKKTLRSSLEGPTILDIEKFHRESFFYTHLINFSETLQQCCDLSQLWFREFFLELTMGRRIQFPIEMSMPWILTDHILETKEASMMEYVLYSLDLYNDSAHYALTRFNKQFLYDEIEAEVNLCFDQFVYKLADQIFAYYKVMAGSLLLDKRLRSECKNQGATIHLPPSNRYETLLKQRHVQLLGRSIDLNRLITQRVSAAMYKSLELAIGRFESEDLTSIVELDGLLEINRMTHKLLSRYLTLDGFDAMFREANHNVSAPYGRITLHVFWELNYDFLPNYCYNGSTNRFVRTVLPFSQEFQRDKQPNAQPQYLHGSKALNLAYSSIYGSYRNFVGPPHFQVICRLLGYQGIAVVMEELLKVVKSLLQGTILQYVKTLMEVMPKICRLPRHEYGSPGILEFFHHQLKDIVEYAELKTVCFQNLREVGNAILFCLLIEQSLSLEEVCDLLHAAPFQNILPRVHVKEGERLDAKMKRLESKYAPLHLVPLIERLGTPQQIAIAREGDLLTKERLCCGLSMFEVILTRIRSFLDDPIWRGPLPSNGVMHVDECVEFHRLWSAMQFVYCIPVGTHEFTVEQCFGDGLHWAGCMIIVLLGQQRRFAVLDFCYHLLKVQKHDGKDEIIKNVPLKKMVERIRKFQILNDEIITILDKYLKSGDGEGTPVEHVRCFQPPIHQSLASS [CYFIP1] | -0.593 | -0.58 | 51.6 °C | 51.1 °C | -0.136 | -0.33
MAARRGALIVLEGVDRAGKSTQSRKLVEALCAAGHRAELLRFPERSTEIGKLLSSYLQKKSDVEDHSVHLLFSANRWEQVPLIKEKLSQGVTLVVDRYAFSGVAFTGAKENFSLDWCKQPDVGLPKPDLVLFLQLQLADAAKRGAFGHERYENGAFQERALRCFHQLMKDTTLNWKMVDASKSIEAVHEDIRVLSEDAIRTATEKPLGELWK [DTYMK] | -8.56 | -6.57 | 56.9 °C | 54.4 °C | 0.00796 | -0.0236
MAARRITQETFDAVLQEKAKRYHMDASGEAVSETLQFKAQDLLRAVPRSRAEMYDDVHSDGRYSLSGSVAHSRDAGREGLRSDVFPGPSFRSSNPSISDDSYFRKECGRDLEFSHSDSRDQVIGHRKLGHFRSQDWKFALRGSWEQDFGHPVSQESSWSQEYSFGPSAVLGDFGSSRLIEKECLEKESRDYDVDHPGEADSVLRGGSQVQARGRALNIVDQEGSLLGKGETQGLLTAKGGVGKLVTLRNVSTKKIPTVNRITPKTQGTNQIQKNTPSPDVTLGTNPGTEDIQFPIQKIPLGLDLKNLRLPRRKMSFDIIDKSDVFSRFGIEIIKWAGFHTIKDDIKFSQLFQTLFELETETCAKMLASFKCSLKPEHRDFCFFTIKFLKHSALKTPRVDNEFLNMLLDKGAVKTKNCFFEIIKPFDKYIMRLQDRLLKSVTPLLMACNAYELSVKMKTLSNPLDLALALETTNSLCRKSLALLGQTFSLASSFRQEKILEAVGLQDIAPSPAAFPNFEDSTLFGREYIDHLKAWLVSSGCPLQVKKAEPEPMREEEKMIPPTKPEIQAKAPSSLSDAVPQRADHRVVGTIDQLVKRVIEGSLSPKERTLLKEDPAYWFLSDENSLEYKYYKLKLAEMQRMSENLRGADQKPTSADCAVRAMLYSRAVRNLKKKLLPWQRRGLLRAQGLRGWKARRATTGTQTLLSSGTRLKHHGRQAPGLSQAKPSLPDRNDAAKDCPPDPVGPSPQDPSLEASGPSPKPAGVDISEAPQTSSPCPSADIDMKTMETAEKLARFVAQVGPEIEQFSIENSTDNPDLWFLHDQNSSAFKFYRKKVFELCPSICFTSSPHNLHTGGGDTTGSQESPVDLMEGEAEFEDEPPPREAELESPEVMPEEEDEDDEDGGEEAPAPGGAGKSEGSTPADGLPGEAAEDDLAGAPALSQASSGTCFPRKRISSKSLKVGMIPAPKRVCLIQEPKVHEPVRIAYDRPRGRPMSKKKKPKDLDFAQQKLTDKNLGFQMLQKMGWKEGHGLGSLGKGIREPVSVGTPSEGEGLGADGQEHKEDTFDVFRQRMMQMYRHKRANK [SUGP2] | 1.78 | 2.89 | 46 °C | 48.8 °C | 0.277 | -0.497
MAARSWQDELAQQAEEGSARLREMLSVGLGFLRTELGLDLGLEPKRYPGWVILVGTGALGLLLLFLLGYGWAAACAGARKKRRSPPRKREEAAAVPAAAPDDLALLKNLRSEEQKKKNRKKLSEKPKPNGRTVEVAEGEAVRTPQSVTAKQPPEIDKKNEKSKKNKKKSKSDAKAVQNSSRHDGKEVDEGAWETKISHREKRQQRKRDKVLTDSGSLDSTIPGIENTITVTTEQLTTASFPVGSKKNKGDSHLNVQVSNFKSGKGDSTLQVSSGLNENLTVNGGGWNEKSVKLSSQISAGEEKWNSVSPASAGKRKTEPSAWSQDTGDANTNGKDWGRSWSDRSIFSGIGSTAEPVSQSTTSDYQWDVSRNQPYIDDEWSGLNGLSSADPNSDWNAPAEEWGNWVDEERASLLKSQEPIPDDQKVSDDDKEKGEGALPTGKSKKKKKKKKKQGEDNSTAQDTEELEKEIREDLPVNTSKTRPKQEKAFSLKTISTSDPAEVLVKNSQPIKTLPPATSTEPSVILSKSDSDKSSSQVPPILQETDKSKSNTKQNSVPPSQTKSETSWESPKQIKKKKKARRET [MTDH] | -2.14 | -6.31 | 59.1 °C | 58.3 °C | 0.414 | -0.39
